# Measured values published in patent publication WO2019198731A1.
# B1: H44 clone (VHH displayed on monoclonal M13 phage) (VHH)
# VHH: QVQLVESGGTLVQAGGSLRLSCAASGRTFSSYAMGWFRQAPGKEREFVAAIRLKTDYSDSVKGRFTISRDNAKNTVYLQMNSLKPEDTAVYYCAAWLRRGYGASWYLTGADPRYWGRGTRVTVSS
# Molecular target: three HER2 antigens (HER2 fragment proteins used for panning)
# Assay: monoclonal phage ELISA on immobilised HER2 antigens
binder,measurement,value
B1,abs. at 450 nm,> 1.5
